Reference: patent publication US20210238308A1

Legend:
Test in all cases: SPR, Protein L capture
[1] = molecular target: PRYSPRY domain of human TRIM21 with N-terminal 6xHis tag (human)
human FcRn (human) = human FcRn (human) (UniProt P55899)
[2] = molecular target: PRYSPRY domain of mouse TRIM21 with N-terminal 6xHis tag (mouse)
PRYSPRY domain of mouse TRIM21 with N-terminal 6xHis tag (mouse), sequence (chain, as listed by the source limits assumed): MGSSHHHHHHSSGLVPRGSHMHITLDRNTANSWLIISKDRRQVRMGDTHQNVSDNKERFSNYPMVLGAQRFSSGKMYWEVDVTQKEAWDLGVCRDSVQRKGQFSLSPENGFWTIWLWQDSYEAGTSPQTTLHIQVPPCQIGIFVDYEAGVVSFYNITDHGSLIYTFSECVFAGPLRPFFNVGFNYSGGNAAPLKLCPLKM

PRYSPRY domain of human TRIM21 with N-terminal 6xHis tag (human), sequence (chain, as listed by the source limits assumed): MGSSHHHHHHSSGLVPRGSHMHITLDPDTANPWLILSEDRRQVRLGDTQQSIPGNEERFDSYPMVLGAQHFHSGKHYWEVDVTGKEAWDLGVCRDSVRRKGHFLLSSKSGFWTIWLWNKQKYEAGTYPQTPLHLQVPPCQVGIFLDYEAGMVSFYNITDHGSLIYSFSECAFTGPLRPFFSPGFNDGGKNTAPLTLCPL

Substance | hTRIM21 binding level ratio (variant/control antibody) [1] | hFcRn binding level ratio (variant/control antibody) (human FcRn (human)) | further results
MRAH-G1d/MRAL-KT0 L309Q (antibody) | – | 0.09 | –
MRAH-G1d/MRAL-KT0 L432A (antibody) | – | 0.08 | –
MRAH-G1d/MRAL-KT0 N434H (antibody) | – | – | mTRIM21 binding level ratio (variant/control antibody) [2]: 0.097

Second part, led by results:

hTRIM21 binding level ratio (variant/control antibody) [1] | hFcRn binding level ratio (variant/control antibody) (human FcRn (human)) | Substance | further results
0.096 | – | MRAH-G1d/MRAL-KT0 E345K (antibody) | –
0.099 | – | MRAH-G1d/MRAL-KT0 L432R (antibody) | –
